Measurements as given in IntAct's records for PubMed 35266954.

Assays:
[1] = biological target: 1433t_human YWHAQ (UniProt P27348)
[2] = biological target: trim1_human MID2 (UniProt Q9UJV3)
Sequence of UniProt Q9UJV3 (Q9UJV3 whole entry): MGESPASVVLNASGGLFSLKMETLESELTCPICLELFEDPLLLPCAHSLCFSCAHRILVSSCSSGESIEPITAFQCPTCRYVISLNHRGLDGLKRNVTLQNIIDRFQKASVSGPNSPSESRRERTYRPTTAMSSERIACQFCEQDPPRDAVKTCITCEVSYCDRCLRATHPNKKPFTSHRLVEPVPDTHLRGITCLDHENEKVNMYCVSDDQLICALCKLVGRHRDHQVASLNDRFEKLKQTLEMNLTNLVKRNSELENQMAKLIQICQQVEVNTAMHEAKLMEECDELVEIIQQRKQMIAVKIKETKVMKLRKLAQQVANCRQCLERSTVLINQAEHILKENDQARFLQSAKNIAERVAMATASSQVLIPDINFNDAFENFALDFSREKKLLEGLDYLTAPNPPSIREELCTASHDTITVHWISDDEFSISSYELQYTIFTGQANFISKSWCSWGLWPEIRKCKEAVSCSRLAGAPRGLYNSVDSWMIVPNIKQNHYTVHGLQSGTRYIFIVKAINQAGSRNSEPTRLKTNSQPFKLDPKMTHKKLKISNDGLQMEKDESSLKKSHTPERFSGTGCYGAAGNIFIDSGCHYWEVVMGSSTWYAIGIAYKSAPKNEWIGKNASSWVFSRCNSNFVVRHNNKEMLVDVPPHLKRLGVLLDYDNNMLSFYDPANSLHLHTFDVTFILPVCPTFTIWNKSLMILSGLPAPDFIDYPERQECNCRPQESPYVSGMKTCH

Sequence of UniProt P27348 (P27348 whole entry): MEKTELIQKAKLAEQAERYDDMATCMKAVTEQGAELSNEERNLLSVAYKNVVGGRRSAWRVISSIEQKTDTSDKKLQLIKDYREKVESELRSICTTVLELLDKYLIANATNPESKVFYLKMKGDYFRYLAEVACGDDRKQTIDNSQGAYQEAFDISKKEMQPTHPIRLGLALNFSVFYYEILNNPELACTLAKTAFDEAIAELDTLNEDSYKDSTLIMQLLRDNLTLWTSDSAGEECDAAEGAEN

In the case of “Leucine-rich repeat serine/threonine-protein kinase 2 (Homo sapiens), Q5S007 S910D;S935D”, the “effect of a mutation on the interaction” value [1] is reported as “disrupting interaction strength”.
In the case of “Leucine-rich repeat serine/threonine-protein kinase 2 (Homo sapiens), Q5S007 G2019S”, the “effect of a mutation on the interaction” value [2] is reported as “with no effect”.
For “Leucine-rich repeat serine/threonine-protein kinase 2 (Homo sapiens), Q5S007 R1441C”, the “effect of a mutation on the interaction” value [1] was “disrupting interaction strength”.
In the case of “Leucine-rich repeat serine/threonine-protein kinase 2 (Homo sapiens), Q5S007 S910A;S935A”, the “effect of a mutation on the interaction” value [1] is reported as “disrupting interaction strength”.
